In paper PMC5179001:

System: RovA (Yersinia pseudotuberculosis (YPIII?))
Experiment: EMSA
Conditions: […]) at 25 C or 37 C, buffer

How did the K half turn out when “rovA promoter fragment BS I (activating site)” was run?
The K half was 6.01 nM.

With “rovA promoter fragment BS II (repressing site)” as the substance, how does the K half read?
Its K half is 40.7 nM.
